These results are taken from patent US20230257476A1 (ELANCO US, published 2023).

In this assay the target is T1, canine CD20 (canine, UniProt Q3C2E2 1-297).
T1 construct: whole, on cells; Endogenous antigen in acetone-fixed tissue cryosections (IHC); also called CD20 protein in dogs
T1 sequence (looked up): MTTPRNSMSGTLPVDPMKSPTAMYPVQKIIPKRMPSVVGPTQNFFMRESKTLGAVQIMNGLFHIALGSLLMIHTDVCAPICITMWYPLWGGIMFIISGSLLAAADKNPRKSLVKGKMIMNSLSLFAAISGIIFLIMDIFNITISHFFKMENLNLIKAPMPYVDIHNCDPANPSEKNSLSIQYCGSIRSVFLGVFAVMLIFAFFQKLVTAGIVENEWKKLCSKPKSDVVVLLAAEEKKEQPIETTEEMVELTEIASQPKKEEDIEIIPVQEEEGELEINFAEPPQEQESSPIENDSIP
Nature of the assay: IHC, precomplexed with biotinylated rabbit anti-dog IgG, cryosections of canine spleen, 10 ug/mL. On the procedure:
The detection reagent or negative control antibody (at a concentration of 10 […]) was mixed with biotinylated rabbit anti-dog IgG, Fc fragment-specific antibody (RbaDglgG) at a concentration of 15 ug/mL to achieve a primary : secondary antibody ratio of 1:1.5 on the day prior to staining.
Precomplexed antibodies were incubated overnight on a rocker mechanism in a refrigerator set to maintain 4° C., Prior to use of the antibody on the subsequent day, dog gamma globulins were added to each vial to achieve a final concentration of 3 mg/mL, and then incubated for at least 2 hours on the rocker mechanism in a refrigerator set to maintain 4° C. Slides were fixed in acetone for 10 minutes at room temperature at the time of sectioning. On the day of staining, the slides were rinsed twice with Tris-buffered saline, 0.15M NaCl, pH 7.6 TBS. Endogenous peroxidase was then quenched by incubation of the slides with an appropriate reagent such as Biocare PeroxAbolish reagent for 5 minutes at room temperature. Next, the slides were rinsed twice with TBS, incubated with the avidin solution for 15 minutes, rinsed once with TBS, incubated with the biotin solution for 15 minutes, and rinsed once with TBS, The slides were then treated with a protein block designed to reduce nonspecific binding for 20 minutes.

B1: K9LO-133 (antibody, V domains shown)
VH: EVQLVQSGAEVKKPGESLKISCKGSGRTFTSYNMHWVRQMPGKGLEWMGAIYPLTGDTSYNQKSKLQVTISADKSISTAYLQWSSLKASDTAMYYCARSTYVGGDWQFDVWGKGTTVTVSS
VL: EIVLTQSPGTLSLSPGERATLSCRASRSVPYIHWYQQKPGQAPRLLIYATSALASGIPDRFSGSGSGTDFTLTISRLEPEDFAVYYCQQWLSNPPTFGQGTKLEIKR
notes: In the IHC it was precomplexed with biotinylated rabbit anti-dog IgG Fc antibody; also called chimeric canine isotype C monoclonal antibody directed against canine CD20
Consider B1, for which the binding result is “binds”.
